Reference: patent US20110262929A1 (FORERUNNER PHARMA RESEARCH, published 2011)

Tests used:
[1] = molecular target: T1, C-terminal V5 tagged mouse HS6ST2 (mHS6ST2_ctV5), expressed in CHO DG44 cells (mouse, UniProt Q80UW0 148-612); assay: flow cytometry on mHS6ST2_ctV5_CHO cells, antibody 2 µg/mL
T1 construct: also called mHS6ST2_ctV5_CHO; mouse HS6ST2 transcript variant 2
T1 sequence: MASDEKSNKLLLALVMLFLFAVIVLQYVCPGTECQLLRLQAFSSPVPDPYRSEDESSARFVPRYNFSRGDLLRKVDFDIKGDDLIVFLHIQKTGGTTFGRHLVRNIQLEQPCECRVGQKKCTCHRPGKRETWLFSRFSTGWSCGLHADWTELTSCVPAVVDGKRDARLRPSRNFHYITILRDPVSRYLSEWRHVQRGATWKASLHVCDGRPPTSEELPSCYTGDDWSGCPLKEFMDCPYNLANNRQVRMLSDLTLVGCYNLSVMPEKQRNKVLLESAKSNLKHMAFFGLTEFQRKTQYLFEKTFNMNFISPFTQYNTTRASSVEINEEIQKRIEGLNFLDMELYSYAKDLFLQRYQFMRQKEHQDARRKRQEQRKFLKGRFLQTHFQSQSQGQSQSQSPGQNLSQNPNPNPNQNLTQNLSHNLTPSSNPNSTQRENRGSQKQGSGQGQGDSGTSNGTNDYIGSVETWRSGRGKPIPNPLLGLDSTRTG
Protocol: (§1) Binding of the anti-HS6ST2 antibodies prepared in Example 2 to mHS6ST2 was evaluated by flow cytometry. The cells used were mHS6ST2_ctV5_CHO, HS6ST2_N-short_ctV5_CHO as a positive control, and the CHO DG44 cell line as a negative control.
(§2) Each anti-HS6ST2 antibody or mouse IgG1 (mIgG1, BD Biosciences Pharmingen) as a negative control was added to a final concentration of 2 μg/mL into 96-well U-bottom plates (Becton Dickinson) containing 5×10⁴ cells suspended in PBS (FACS buffer) supplemented with 0.5% bovine serum albumin and 0.1% NaN₃. After reaction on ice for 1 hour, the cells were washed with FACS buffer. Then, an FITC-labeled anti-mouse antibody (Goat F(ab′)₂ Fragment Anti-mouse IgG (H+L)-FITC, Beckman Coulter) was added as a secondary antibody, and the mixture was reacted on ice for 1 hour. The cells were washed with FACS buffer, and then suspended in FACS buffer containing 10 μg/mL propidium iodide (PI) (Sigma) and assayed by a flow cytometer (FACS Calibur, Becton Dickinson). The assay data were analyzed by CELLQuest software (Becton Dickinson), and the geo-mean of FITC fluorescent intensity was calculated for the PI-negative population of viable cells.

[2] = molecular target: T2, GST_HS6ST2_N (human, UniProt Q96MM7 170-321); assay: Western blot of E. coli whole cell lysate, antibody 10 µg/mL
T2 construct: Expressed in E. coli BL21 (DE3); whole cell lysate blotted after SDS-PAGE; also called GST fusion of amino acids 24-175 of HS6ST2_N-short; not shown: N-terminal glutathione S-transferase (GST) of vector pGEX-6P-1, with the vector's linker
T2 sequence: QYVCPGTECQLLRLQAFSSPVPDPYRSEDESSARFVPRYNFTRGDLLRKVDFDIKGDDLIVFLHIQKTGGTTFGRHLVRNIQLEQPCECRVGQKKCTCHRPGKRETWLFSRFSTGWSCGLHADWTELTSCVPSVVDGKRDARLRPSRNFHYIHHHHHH
Protocol: (§3) GST_HS6ST2_N, GST_HS6ST2_mid, GST_HS6ST2_C, GST_HS6ST2_C1 and GST_HS6ST2_C2 were expressed in BL21 (DE3) Competent Cells (Takara Bio), and the whole cell lysates were resolved by SDS-PAGE electrophoresis and then transferred to PVDF membranes (Immobilon-P, Millipore) and Western blotted with the anti-HS6ST2 antibodies. The anti-HS6ST2 antibodies were used at 10 μg/mL, while the secondary antibody (HRP-anti mIgG, GE Healthcare) was used as a 3000-fold dilution, and blots were detected with ECL Western Blotting Detection Reagents (GE Healthcare). As a result, the anti-HS6ST2 antibodies A1, A10, B5, B6 and C8 bound to GST_HS6ST2_C2, A6 bound to GST_HS6ST2_C1, and C10 bound to GST_HS6ST2_N.

[3] = molecular target: T3, C-terminal V5 tagged HS6ST2_N-short (HS6ST2_N-short_ctV5), expressed in CHO DG44 cells (human, UniProt Q96MM7 147-605); assay: flow cytometry on HS6ST2_N-short_ctV5_CHO cells, antibody 2 µg/mL
T3 construct: also called Q96MM7-2
T3 sequence: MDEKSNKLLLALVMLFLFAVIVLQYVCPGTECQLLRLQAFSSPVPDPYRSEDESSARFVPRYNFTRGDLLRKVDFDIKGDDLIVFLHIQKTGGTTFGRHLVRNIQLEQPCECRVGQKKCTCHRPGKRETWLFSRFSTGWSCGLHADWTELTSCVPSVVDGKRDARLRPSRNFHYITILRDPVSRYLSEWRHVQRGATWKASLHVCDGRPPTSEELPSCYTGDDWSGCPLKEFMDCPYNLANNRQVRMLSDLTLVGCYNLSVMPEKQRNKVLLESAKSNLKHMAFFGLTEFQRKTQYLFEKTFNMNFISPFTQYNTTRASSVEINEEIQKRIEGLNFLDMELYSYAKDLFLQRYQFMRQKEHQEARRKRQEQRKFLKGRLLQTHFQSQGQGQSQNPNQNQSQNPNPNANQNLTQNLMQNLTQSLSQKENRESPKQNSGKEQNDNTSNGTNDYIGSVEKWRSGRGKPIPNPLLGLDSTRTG
Protocol: as §1, §2

[4] = molecular target: T4, C-terminal V5 tagged HS6ST2_N-long (HS6ST2_N-long_ctV5), expressed in CHO DG44 cells (human, UniProt Q96MM7 1-605); assay: flow cytometry on HS6ST2_N-long_ctV5_CHO cells
T4 construct: On cells in flow cytometry; also called Q96MM7-1
T4 sequence: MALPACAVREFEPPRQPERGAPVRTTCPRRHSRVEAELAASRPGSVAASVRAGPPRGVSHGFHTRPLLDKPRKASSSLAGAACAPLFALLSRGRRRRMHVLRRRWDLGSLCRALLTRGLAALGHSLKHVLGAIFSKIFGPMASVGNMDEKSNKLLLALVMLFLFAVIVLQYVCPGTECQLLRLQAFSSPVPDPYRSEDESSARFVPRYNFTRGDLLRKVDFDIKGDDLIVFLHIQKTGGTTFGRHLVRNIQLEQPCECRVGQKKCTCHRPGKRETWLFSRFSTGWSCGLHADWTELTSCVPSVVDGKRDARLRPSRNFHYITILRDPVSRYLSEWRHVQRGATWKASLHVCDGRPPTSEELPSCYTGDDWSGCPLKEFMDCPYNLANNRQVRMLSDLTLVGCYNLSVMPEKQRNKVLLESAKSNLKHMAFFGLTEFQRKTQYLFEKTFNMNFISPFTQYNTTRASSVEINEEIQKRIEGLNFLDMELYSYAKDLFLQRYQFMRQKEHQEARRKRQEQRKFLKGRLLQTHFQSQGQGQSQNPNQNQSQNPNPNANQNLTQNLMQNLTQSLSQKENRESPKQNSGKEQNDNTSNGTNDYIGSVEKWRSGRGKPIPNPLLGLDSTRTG
Protocol: as §2
Binding activity of the anti-HS6ST2 antibodies prepared in Example 2 to HS6ST2_N-long was evaluated by flow cytometry. The cells used were HS6ST2_N-long_ctV5_CHO cells and HS6ST2_N-short_{—} ctV5_CHO cells as a positive control, and evaluated in the same manner as in Example 3. The primary antibodies were used at a concentration of 10 μg/mL.

[5] = molecular target: T5, GST_HS6ST2_C2 (human, UniProt Q96MM7 525-605); assay: Western blot of E. coli whole cell lysate, antibody 10 µg/mL
T5 construct: Expressed in E. coli BL21 (DE3); whole cell lysate blotted after SDS-PAGE; also called GST fusion of amino acids 379-459 of HS6ST2_N-short; not shown: N-terminal glutathione S-transferase (GST) of vector pGEX-6P-1, with the vector's linker
T5 sequence: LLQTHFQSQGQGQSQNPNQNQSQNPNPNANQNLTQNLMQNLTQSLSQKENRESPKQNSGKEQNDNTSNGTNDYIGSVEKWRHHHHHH
Protocol: as §3

[6] = molecular target: T1, C-terminal V5 tagged mouse HS6ST2 …; assay: flow cytometry on mHS6ST2_ctV5_CHO cells
Protocol: as §1, §2

B1: anti-HS6ST2 antibody C10 (antibody, mouse IgG1, V domains shown)
VH: QVQLHQPGSVLVRPGASVKLSCKASGYTFTDSWMHWAKQRPGQGLEWIGEIRPNSGKTNYNEKFKGKATLTVDTSSSTAYVDLRSLTSEDSAVYYCVRTYMSHFDYWGQGTTLTVSS
VL: DIVMTQAAFSNPVTLGTSASISCRSSKSLLHSNGITYLYWYLQKPGQSPQLLIYQMSNLAPGVPDRVSSSGSGSDFTLRISRVEAEDVGVYYCAQNLELPFTFGSGTRLEIK
notes: also called clone C10
[1]
  binding result: binds
[2]
  binding result: binds
[3]
  binding result: binds
[4]
  binding result: binds

B2: anti-HS6ST2 antibody A10 (antibody, mouse IgG1, V domains shown)
VH: EVQLQQSGAELVKPGASVKLSCTASGFNIKDTYMHWVKQRPEQGLEWIGRIDPANGNTKFDPKFQGKASITADTSSNTAYLQLSSLTSEDTAVYYCATNLLRAMDYWGQGTSVTVSS
VL: DIVMSQSPSSLTVSVGEKVTMSCKSSQSLLYSSNQKNYLAWCQQIPGQSPKLLIYWASTRESGVPDRFAGSGSGTDFTLTISSVKAEDLAVYYCLQYFTYPFTFGSGTKLEIK
notes: also called clone A10
[5]
  binding result: binds
[3]
  binding result: binds
[6]
  binding result: no binding (tested: 2 µg/mL)
[4]
  binding result: binds

B3: anti-HS6ST2 antibody B5 (antibody, mouse IgG1, V domains shown)
VH: EVKLVESGGGLVKSGGSLKLSCVVSGFTFSRYAMSWVRQTPEKRLEWVASIVSGDKTYYPDSVKGRFTISRDNARNILYLQMSSLRSEDTAMYYCTRELGYFDVWGAGTTVTVSS
VL: DVVMTQTPLSLPVSLGDQASISCRSSQSLVHSNGNTYLHWYLQKPGQSPKLLIYKVSNRFSGVPDRFSGSGSGTDFTLKISRVEAEDLGVYFCSQSIHVPPLTFGAGTKLELK
notes: also called clone B5; B5-biotin
[5]
  binding result: binds
[3]
  binding result: binds
[6]
  binding result: no binding (tested: 2 µg/mL)
[4]
  binding result: binds

B4: anti-HS6ST2 antibody B6 (antibody, mouse IgG1, V domains shown)
VH: EVQLQQSGAELVRSGASVKLSCTASGFNIKDYYMHWVKQRPEQGLEWIGWIDPDNGDTEYAPKFQGKATMTADTSSNTAYLQLSSLTSEDTAVYYCNAGNGNYWFAYWGQGTLVTVSA
VL: DVVMTQTPLSLPVSLGDQASISCRSSQSLVHSNGNTYLHWNLQKPGQSPKLLIYKVSNRFSGVPDRFSGSGSGTDFTLKISRVEAEDLGVYFCSQTTLVPYTFGGGTKLEIK
notes: also called clone B6
[5]
  binding result: binds
[3]
  binding result: binds
[6]
  binding result: no binding (tested: 2 µg/mL)
[4]
  binding result: binds
